Data as given in patent US20150344570A1 (published 2015).

B1: GpH7-A5/GpH7-B3 variant I332_10E/GpL16-k0 (antibody, human IgG1, kappa)
heavy 1: not shown
heavy 2: not shown
light: DIVMTQSPLSLPVTPGEPASISCQASESLVHSNRNTYLHWYLQKPGQSPQLLIYKVSNRFSGVPDRFSGSGSGTDFTLKISRVEAEDVGVYYCSQNTHVPPTFGQGTKVEIERTVAAPSVFIFPPSDEQLKSGTASVVCLLNNFYPREAKVQWKVDNALQSGNSQESVTEQDSKDSTYSLSSTLTLSKADYEKHKVYACEVTHQGLSSPVTKSFNRGEC
notes: also called He Ab I332_10E
B2: GpH7-A5/GpH7-B3 variant I332_13S/GpL16-k0 (antibody, human IgG1, kappa)
heavy 1: not shown
heavy 2: not shown
light: B1 light
notes: also called He Ab I332_13S
B3: GpH7-A5/GpH7-B3 variant I332_14T/GpL16-k0 (antibody, human IgG1, kappa)
heavy 1: not shown
heavy 2: not shown
light: B1 light
notes: also called He Ab I332_14T
B4: GpH7-A5/GpH7-B3 variant I332_15Y/GpL16-k0 (antibody, human IgG1, kappa)
heavy 1: not shown
heavy 2: not shown
light: B1 light
notes: also called He Ab I332_15Y
B5: GpH7-A5/GpH7-B3 variant I332_19Q/GpL16-k0 (antibody, human IgG1, kappa)
heavy 1: not shown
heavy 2: not shown
light: B1 light
notes: also called He Ab I332_19Q
B6: GpH7-A5/GpH7-B3 variant I336_02A/GpL16-k0 (antibody, human IgG1, kappa)
heavy 1: not shown
heavy 2: not shown
light: B1 light
notes: also called He Ab I336_02A
B7: GpH7-A5/GpH7-B3 variant I336_03V/GpL16-k0 (antibody, human IgG1, kappa)
heavy 1: not shown
heavy 2: not shown
light: B1 light
notes: also called He Ab I336_03V
B8: GpH7-A5/GpH7-B3 variant I336_06M/GpL16-k0 (antibody, human IgG1, kappa)
heavy 1: not shown
heavy 2: not shown
light: B1 light
notes: also called He Ab I336_06M
B9: GpH7-A5/GpH7-B3 variant I336_09D/GpL16-k0 (antibody, human IgG1, kappa)
heavy 1: not shown
heavy 2: not shown
light: B1 light
notes: also called He Ab I336_09D
B10: GpH7-A5/GpH7-B3 variant I336_10E/GpL16-k0 (antibody, human IgG1, kappa)
heavy 1: not shown
heavy 2: not shown
light: B1 light
notes: also called He Ab I336_10E
B11: GpH7-A5/GpH7-B3 variant I336_13S/GpL16-k0 (antibody, human IgG1, kappa)
heavy 1: not shown
heavy 2: not shown
light: B1 light
notes: also called He Ab I336_13S
B12: GpH7-A5/GpH7-B3 variant I336_14T/GpL16-k0 (antibody, human IgG1, kappa)
heavy 1: not shown
heavy 2: not shown
light: B1 light
notes: also called He Ab I336_14T
B13: GpH7-A5/GpH7-B3 variant I336_18N/GpL16-k0 (antibody, human IgG1, kappa)
heavy 1: not shown
heavy 2: not shown
light: B1 light
notes: also called He Ab I336_18N
B14: GpH7-A5/GpH7-B3 variant K326_03V/GpL16-k0 (antibody, human IgG1, kappa)
heavy 1: not shown
heavy 2: not shown
light: B1 light
notes: also called He Ab K326_03V
B15: GpH7-A5/GpH7-B3 variant K326_04F/GpL16-k0 (antibody, human IgG1, kappa)
heavy 1: not shown
heavy 2: not shown
light: B1 light
notes: also called He Ab K326_04F
B16: GpH7-A5/GpH7-B3 variant K326_06M/GpL16-k0 (antibody, human IgG1, kappa)
heavy 1: not shown
heavy 2: not shown
light: B1 light
notes: also called He Ab K326_06M
B17: GpH7-A5/GpH7-B3 variant K326_07I/GpL16-k0 (antibody, human IgG1, kappa)
heavy 1: not shown
heavy 2: not shown
light: B1 light
notes: also called He Ab K326_07I
B18: GpH7-A5/GpH7-B3 variant K326_08L/GpL16-k0 (antibody, human IgG1, kappa)
heavy 1: not shown
heavy 2: not shown
light: B1 light
notes: also called He Ab K326_08L
B19: GpH7-A5/GpH7-B3 variant K326_09D/GpL16-k0 (antibody, human IgG1, kappa)
heavy 1: not shown
heavy 2: not shown
light: B1 light
notes: also called He Ab K326_09D
B20: GpH7-A5/GpH7-B3 variant K326_10E/GpL16-k0 (antibody, human IgG1, kappa)
heavy 1: not shown
heavy 2: not shown
light: B1 light
notes: also called He Ab K326_10E
B21: GpH7-A5/GpH7-B3 variant K326_14T/GpL16-k0 (antibody, human IgG1, kappa)
heavy 1: not shown
heavy 2: not shown
light: B1 light
notes: also called He Ab K326_14T
B22: GpH7-A5/GpH7-B3 variant K326_15Y/GpL16-k0 (antibody, human IgG1, kappa)
heavy 1: not shown
heavy 2: not shown
light: B1 light
notes: also called He Ab K326_15Y
B23: GpH7-A5/GpH7-B3 variant K326_19Q/GpL16-k0 (antibody, human IgG1, kappa)
heavy 1: not shown
heavy 2: not shown
light: B1 light
notes: also called He Ab K326_19Q
B24: GpH7-A5/GpH7-B3 variant K334_02A/GpL16-k0 (antibody, human IgG1, kappa)
heavy 1: not shown
heavy 2: not shown
light: B1 light
notes: also called He Ab K334_02A
B25: GpH7-A5/GpH7-B3 variant K334_03V/GpL16-k0 (antibody, human IgG1, kappa)
heavy 1: not shown
heavy 2: not shown
light: B1 light
notes: also called He Ab K334_03V
B26: GpH7-A5/GpH7-B3 variant K334_04F/GpL16-k0 (antibody, human IgG1, kappa)
heavy 1: not shown
heavy 2: not shown
light: B1 light
notes: also called He Ab K334_04F
B27: GpH7-A5/GpH7-B3 variant K334_05P/GpL16-k0 (antibody, human IgG1, kappa)
heavy 1: not shown
heavy 2: not shown
light: B1 light
notes: also called He Ab K334_05P
B28: GpH7-A5/GpH7-B3 variant K334_07I/GpL16-k0 (antibody, human IgG1, kappa)
heavy 1: not shown
heavy 2: not shown
light: B1 light
notes: also called He Ab K334_07I

Molecular target: T1, FcγRIIIa extracellular domain with C-terminal His tag (human, UniProt P08637 17-208)
T1 construct: extracellular domain; also called FcgRIIIa; 3a; not shown: His tag attached to the C terminus
T1 sequence (P08637 17-208): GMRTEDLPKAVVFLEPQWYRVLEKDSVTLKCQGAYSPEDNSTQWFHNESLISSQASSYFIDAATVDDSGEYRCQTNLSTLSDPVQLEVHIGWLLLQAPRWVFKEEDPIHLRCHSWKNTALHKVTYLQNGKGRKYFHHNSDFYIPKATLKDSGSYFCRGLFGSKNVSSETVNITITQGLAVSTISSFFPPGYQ
Assay: SPR Biacore, captured antibody, FcγR analyte, relative binding
Method: Analysis of interaction between objective antibody and the FcγR was carried out using Biacore T100 (GE Healthcare). HBS-EP+ (GE Healthcare) was used as the running buffer, and the measurement temperature was set to 25° C. Chips produced by immobilizing the antigen peptide by the amine coupling method to a Series S Sencor Chip CM5 (GE Healthcare), or alternatively, chips produced by allowing preliminarily biotinylated antigen peptides to interact with and immobilize onto a Series S Sensor Chip SA (certified) (GE Healthcare) were used. Antibodies of interest were captured onto an antigen peptide-immobilized chip, and allowed to interact to each FcγR diluted with running buffer. To regenerate and repeatedly use the chip, the antibodies captured on the chip were washed off by reacting 10 mM glycine-HCl, pH 1.5.

**Q.** How did the He/Con_3a turn out when B1 was run?
**A.** Its He/Con_3a is 233 % of HeCon Ab GpH7-A5/GpH7-B3/GpL16-k0 (=100).

**Q.** Which He/Con_3a does the source give for B2 here?
**A.** The He/Con_3a was 104 % of HeCon Ab GpH7-A5/GpH7-B3/GpL16-k0 (=100).

**Q.** How did the He/Con_3a turn out when B3 was run?
**A.** Its He/Con_3a is 120 % of HeCon Ab GpH7-A5/GpH7-B3/GpL16-k0 (=100).

**Q.** Which He/Con_3a does the source give for B4 here?
**A.** Its He/Con_3a is 101 % of HeCon Ab GpH7-A5/GpH7-B3/GpL16-k0 (=100).

**Q.** With B5 as the binder, how does the He/Con_3a read?
**A.** Its He/Con_3a is 110 % of HeCon Ab GpH7-A5/GpH7-B3/GpL16-k0 (=100).

**Q.** Which He/Con_3a does the source give for B6 here?
**A.** Its He/Con_3a is 111 % of HeCon Ab GpH7-A5/GpH7-B3/GpL16-k0 (=100).

**Q.** How did the He/Con_3a turn out when B7 was run?
**A.** The He/Con_3a was 112 % of HeCon Ab GpH7-A5/GpH7-B3/GpL16-k0 (=100).

**Q.** For B8, which He/Con_3a is on record?
**A.** The He/Con_3a was 109 % of HeCon Ab GpH7-A5/GpH7-B3/GpL16-k0 (=100).

**Q.** For B9, which He/Con_3a is on record?
**A.** The He/Con_3a was 106 % of HeCon Ab GpH7-A5/GpH7-B3/GpL16-k0 (=100).

**Q.** B10 was tested. Which He/Con_3a did it give?
**A.** The He/Con_3a was 119 % of HeCon Ab GpH7-A5/GpH7-B3/GpL16-k0 (=100).

**Q.** For B11, which He/Con_3a is on record?
**A.** The He/Con_3a was 102 % of HeCon Ab GpH7-A5/GpH7-B3/GpL16-k0 (=100).

**Q.** B12 was tested. Which He/Con_3a did it give?
**A.** The He/Con_3a was 108 % of HeCon Ab GpH7-A5/GpH7-B3/GpL16-k0 (=100).

**Q.** B13 was tested. Which He/Con_3a did it give?
**A.** Its He/Con_3a is 104 % of HeCon Ab GpH7-A5/GpH7-B3/GpL16-k0 (=100).

**Q.** B14 was tested. Which He/Con_3a did it give?
**A.** Its He/Con_3a is 122 % of HeCon Ab GpH7-A5/GpH7-B3/GpL16-k0 (=100).

**Q.** For B15, which He/Con_3a is on record?
**A.** The He/Con_3a was 103 % of HeCon Ab GpH7-A5/GpH7-B3/GpL16-k0 (=100).

**Q.** With B16 as the binder, how does the He/Con_3a read?
**A.** Its He/Con_3a is 115 % of HeCon Ab GpH7-A5/GpH7-B3/GpL16-k0 (=100).

**Q.** How did the He/Con_3a turn out when B17 was run?
**A.** The He/Con_3a was 139 % of HeCon Ab GpH7-A5/GpH7-B3/GpL16-k0 (=100).

**Q.** Which He/Con_3a does the source give for B18 here?
**A.** The He/Con_3a was 114 % of HeCon Ab GpH7-A5/GpH7-B3/GpL16-k0 (=100).

**Q.** How did the He/Con_3a turn out when B19 was run?
**A.** Its He/Con_3a is 134 % of HeCon Ab GpH7-A5/GpH7-B3/GpL16-k0 (=100).

**Q.** For B20, which He/Con_3a is on record?
**A.** The He/Con_3a was 124 % of HeCon Ab GpH7-A5/GpH7-B3/GpL16-k0 (=100).

**Q.** How did the He/Con_3a turn out when B21 was run?
**A.** The He/Con_3a was 126 % of HeCon Ab GpH7-A5/GpH7-B3/GpL16-k0 (=100).

**Q.** B22 was tested. Which He/Con_3a did it give?
**A.** Its He/Con_3a is 112 % of HeCon Ab GpH7-A5/GpH7-B3/GpL16-k0 (=100).

**Q.** For B23, which He/Con_3a is on record?
**A.** Its He/Con_3a is 106 % of HeCon Ab GpH7-A5/GpH7-B3/GpL16-k0 (=100).

**Q.** With B24 as the binder, how does the He/Con_3a read?
**A.** The He/Con_3a was 147 % of HeCon Ab GpH7-A5/GpH7-B3/GpL16-k0 (=100).

**Q.** B25 was tested. Which He/Con_3a did it give?
**A.** Its He/Con_3a is 150 % of HeCon Ab GpH7-A5/GpH7-B3/GpL16-k0 (=100).

**Q.** For B26, which He/Con_3a is on record?
**A.** Its He/Con_3a is 148 % of HeCon Ab GpH7-A5/GpH7-B3/GpL16-k0 (=100).

**Q.** For B27, which He/Con_3a is on record?
**A.** The He/Con_3a was 134 % of HeCon Ab GpH7-A5/GpH7-B3/GpL16-k0 (=100).

**Q.** Which He/Con_3a does the source give for B28 here?
**A.** Its He/Con_3a is 151 % of HeCon Ab GpH7-A5/GpH7-B3/GpL16-k0 (=100).
